Measured values taken from US7741277 (AETERNA ZENTARIS, dated 2010).
“And” between values parts separate entries of the source, which are not always exact repeats. Equal values may be shown once.

Molecular target: T1, human GnRH receptor (hGnRH-R) (human, UniProt P30968 1-328)
T1 sequence (looked up): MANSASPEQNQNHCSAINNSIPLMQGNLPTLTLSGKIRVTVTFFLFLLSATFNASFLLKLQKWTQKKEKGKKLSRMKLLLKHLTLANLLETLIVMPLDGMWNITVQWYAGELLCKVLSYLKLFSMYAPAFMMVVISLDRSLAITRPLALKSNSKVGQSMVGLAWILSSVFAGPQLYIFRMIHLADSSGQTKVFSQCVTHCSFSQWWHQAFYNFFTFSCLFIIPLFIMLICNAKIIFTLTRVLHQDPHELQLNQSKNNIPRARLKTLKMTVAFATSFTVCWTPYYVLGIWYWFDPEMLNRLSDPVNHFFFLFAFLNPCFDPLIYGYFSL
Test: cell-based or functional assay

## AN-152 (peptide)
  proliferation status after 96 h (vital cells, untreated control = 100%), hGnRH-R positive cell line 5C6, 100 nM (% of untreated control): 42.1 and 43.9

B1: disorazole Z mono hemi succinyl [D-Lys^6]LHRH (16) (peptide)
peptide: XHWSYKLRPG
modifications: Glp (pyroglutamate) at 1; D-Lys at 6, joined through a succinyl linker to disorazole Z; C-terminal amide
  proliferation status after 96 h (vital cells, untreated control = 100%), hGnRH-R positive cell line 5C6, 0.1 nM: 83.8 % of untreated control
  proliferation status after 96 h (vital cells, untreated control = 100%), hGnRH-R positive cell line 5C6, 1 nM: 80.9 % of untreated control
  proliferation status after 96 h (vital cells, untreated control = 100%), hGnRH-R positive cell line 5C6, 10 nM: 54.1 % of untreated control
  proliferation status after 96 h (vital cells, untreated control = 100%), hGnRH-R positive cell line 5C6, 100 nM: 21.9 % of untreated control

B2: disorazole Z bis hemi glutaryl [D-Lys^6]LHRH (17) (peptide)
peptide: XHWSYKLRPG
modifications: Glp (pyroglutamate) at 1; D-Lys at 6, joined through a glutaryl linker to disorazole Z; C-terminal amide
  proliferation status after 96 h (vital cells, untreated control = 100%), hGnRH-R positive cell line 5C6, 0.1 nM: 95.5 % of untreated control
  proliferation status after 96 h (vital cells, untreated control = 100%), hGnRH-R positive cell line 5C6, 1 nM: 85.9 % of untreated control
  proliferation status after 96 h (vital cells, untreated control = 100%), hGnRH-R positive cell line 5C6, 10 nM: 58.5 % of untreated control
  proliferation status after 96 h (vital cells, untreated control = 100%), hGnRH-R positive cell line 5C6, 100 nM: 41.7 % of untreated control

B3: disorazole E1 mono hemi succinyl [D-Lys^6]LHRH, both regio-isomers (13) & (14) (peptide)
peptide: XHWSYKLRPG
modifications: Glp (pyroglutamate) at 1; D-Lys at 6, joined through a succinyl linker to disorazole E1; C-terminal amide
  proliferation status after 96 h (vital cells, untreated control = 100%), hGnRH-R positive cell line 5C6, 0.1 nM: 85.9 % of untreated control
  proliferation status after 96 h (vital cells, untreated control = 100%), hGnRH-R positive cell line 5C6, 1 nM: 80.8 % of untreated control
  proliferation status after 96 h (vital cells, untreated control = 100%), hGnRH-R positive cell line 5C6, 10 nM: 45.9 % of untreated control
  proliferation status after 96 h (vital cells, untreated control = 100%), hGnRH-R positive cell line 5C6, 100 nM: 14.6 % of untreated control
